According to PMC11490872, “Drug-resistant menin variants retain high binding affinity and interactions with MLL1” (The Journal of Biological Chemistry, 2024):
Substitutions are numbered along the chain they refer to. Like-named read-outs stand apart in the source and are kept apart here. Blank lines part the entries; values can stand above or below the molecule they belong to.

Assays:
Assay type in all cases: binding
[1] = target: T1, menin^M327I bound to FLSN-MLL1^4-43 (Homo sapiens, UniProt O00255, M322I); assay: FP competition, displacement of FLSN-MLL1^4-43 from menin^M327I
T1 construct: The gene encoding full-length human menin was cloned into a pET32a expression vector; thioredoxin-His6 (cleaved yes); made in house; host or cells: E. coli BL21(DE3); probe peptide from GenScript
T1 sequence (O00255 1-610 M322I): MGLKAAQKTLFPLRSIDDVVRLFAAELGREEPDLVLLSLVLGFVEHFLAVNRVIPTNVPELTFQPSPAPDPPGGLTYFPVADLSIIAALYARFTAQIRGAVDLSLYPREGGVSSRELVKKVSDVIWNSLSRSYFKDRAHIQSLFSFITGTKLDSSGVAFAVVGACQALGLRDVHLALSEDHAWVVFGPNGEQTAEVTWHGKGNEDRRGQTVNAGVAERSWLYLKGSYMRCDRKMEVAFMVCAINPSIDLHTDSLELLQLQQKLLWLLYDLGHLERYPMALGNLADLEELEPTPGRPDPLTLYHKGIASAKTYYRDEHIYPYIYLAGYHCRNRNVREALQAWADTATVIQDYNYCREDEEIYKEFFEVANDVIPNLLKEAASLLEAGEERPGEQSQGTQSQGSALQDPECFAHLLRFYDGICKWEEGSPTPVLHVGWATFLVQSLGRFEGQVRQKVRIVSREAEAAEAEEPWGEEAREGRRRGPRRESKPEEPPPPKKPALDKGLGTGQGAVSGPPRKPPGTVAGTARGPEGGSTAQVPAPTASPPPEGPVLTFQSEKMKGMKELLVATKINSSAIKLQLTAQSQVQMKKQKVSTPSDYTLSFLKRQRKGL
Method: (§1) FP competition experiments used FLSN-MLL1^4-43 at 4 nM and menin at 4 nM against varying concentrations of unlabeled MLL1 peptides in FP buffer for IC50 determination. Protein-peptide complexes were incubated for 1 h before unlabeled peptide competitors were added to ensure complete binding. Unlabeled peptide competitors were incubated with the protein-peptide complexes for 3 h before measurement using the PHERAstar microplate reader ([25]). Experiments with Revumenib were run with the same steps and conditions but used 5% DMSO in the final solution. Kd and IC50 values were calculated using GraphPad Prism 10 by plotting mP values measured for each protein/MLL1 peptide or Revumenib as a function of protein/MLL1 peptide (or Revumenib) concentration ([25]). All FP binding and competition experiments were run in triplicate.

[2] = target: T2, menin^WT bound to FLSN-MLL1^4-43 (Homo sapiens, UniProt O00255); assay: FP competition, displacement of FLSN-MLL1^4-43 from menin^WT
T2 construct: Full-length human menin was expressed in BL21(DE3) cells; thioredoxin-His6 (cleaved yes); made in house; host or cells: E. coli BL21(DE3); probe peptide from GenScript
T2 sequence (O00255 1-610): T1 sequence (O00255 1-610 M322I) with I322M
Method: as §1

[3] = target: T3, menin^T349M bound to FLSN-MLL1^4-43 (Homo sapiens, UniProt O00255, T344M); assay: FP competition, displacement of FLSN-MLL1^4-43 from menin^T349M
T3 construct: The gene encoding full-length human menin was cloned into a pET32a expression vector; thioredoxin-His6 (cleaved yes); made in house; host or cells: E. coli BL21(DE3); probe peptide from GenScript
T3 sequence (O00255 1-610 T344M): T1 sequence (O00255 1-610 M322I) with I322M, T344M
Method: as §1

[4] = FP competition with MLL1 fragments, 3 h incubation, N = 3, Fig. 3B, read-out: M327I IC50
[5] = FP competition with MLL1 fragments, 3 h incubation, N = 3, Fig. 3B, read-out: WT IC50
[6] = FP competition with MLL1 fragments, 3 h incubation, N = 3, Fig. 3B, read-out: T349M IC50

IC50 ([1]; FP competition, 5% DMSO, 3 h, N = 3, Fig. 4A, read-out: IC50 (nM), menin variant M327I): 535 ± 37 nM | IC50 ([2]; FP competition, 5% DMSO, 3 h, N = 3, Fig. 4A, read-out: IC50 (nM), menin variant WT): 5.7 nM | IC50 ([3]; FP competition, 5% DMSO, 3 h, N = 3, Fig. 4A, read-out: IC50 (nM), menin variant T349M): 125 ± 11 nM
Molecule: CCN(C(=O)c1cc(F)ccc1Oc1cncnc1N1CC2(CCN(C[C@H]3CC[C@H](NS(=O)(=O)CC)CC3)CC2)C1)C(C)C [Revumenib, reference compound]

IC50 [1, 4]: 1.7 ± 0.7 nM | IC50 [2, 5]: 1.6 ± 0.7 nM | IC50 [3, 6]: 1.9 ± 0.5 nM
Molecule: MLL1^46: recombinant MLL1 fragment spanning amino acids 1–46, containing MBM1 and MBM2 (MAHSARWRFPARPGTTGGGGGGGRRGLGGAPRQRVPALLLPPGPPV; The printed 'Cys2' is Cys5 in the entry (peptide S4-A5-R6); Trx-His6 tag cl)

IC50 [1, 4]: 5.1 ± 0.2 nM | IC50 [2, 5]: 4.1 ± 1.3 nM | IC50 [3, 6]: 4.4 ± 0.8 nM
B1: MLL1^160: N-terminal 160 amino acids of human MLL1, Cys2 mutated to alanine, recombinant (protein)
chain: MAHSARWRFPARPGTTGGGGGGGRRGLGGAPRQRVPALLLPPGPPVGGGGPGAPPSPPAVAAAAAAAGSSGAGVPGGAAAASAASSSSASSSSSSSSSASSGPALLRVGPGFDAALQVSAAIGTNLRRFRAVFGESGGGGGSGEDEQFLGFGSDEEVRVR
modifications: The printed 'Cys2' is the single N-terminal cysteine, Cys5 in the entry (peptide S4-A5-R6); Trx-His6 tag cleaved
